The assay addresses T1, recombinant human 4R0N tau (human, UniProt P10636 2-758).
T1 construct: also called P10636-6
The assay is described as follows: SPR, Biacore T200, antibody captured on anti-human Fc, tau as analyte, 1:1 fit. How it is done:
Target binding analysis was performed using a Biacore T200 to compare the binding affinity of humanized 3D6 variants to recombinant human 4R0N tau. Anti-Human Fc antibody was immobilized on sensor chip CM3 via amine coupling, and humanized 3D6 variants were captured to equivalent levels. […] Data was blank subtracted to both an irrelevant sensor not containing antibody and 0 nM analyte concentration. Analysis was performed using a global 1:1 fit with Biacore Evaluation software.
(In general: In SPR one partner is held on a chip, and binding of the other changes the refractive index at the surface.)

T1 sequence (P10636 other isoform, or with tags, fused parts or gaps limits assumed): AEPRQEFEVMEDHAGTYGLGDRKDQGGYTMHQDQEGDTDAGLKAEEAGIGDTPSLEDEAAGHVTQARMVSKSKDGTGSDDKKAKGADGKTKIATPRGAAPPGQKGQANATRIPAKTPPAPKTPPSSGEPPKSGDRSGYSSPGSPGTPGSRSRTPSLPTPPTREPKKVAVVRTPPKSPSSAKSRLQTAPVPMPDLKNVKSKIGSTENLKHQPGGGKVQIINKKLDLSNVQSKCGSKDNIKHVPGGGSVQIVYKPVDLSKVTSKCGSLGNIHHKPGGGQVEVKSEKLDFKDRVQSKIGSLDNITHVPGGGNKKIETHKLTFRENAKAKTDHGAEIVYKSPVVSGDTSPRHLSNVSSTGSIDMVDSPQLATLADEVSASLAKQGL

B1: h3D6VHvb8/L2-DIM4 (antibody, V domains shown)
VH: EVQLVQSGAEVVKPGATVKISCKASGFNIKDYYLHWVRQRPGQGLEWIGWIDPENGDTVYEPKFQGRATITADTSTDTAYLQLGSLTSEDTAVYFCSTLDFWGQGTLVTVSS
VL: DVVMTQSPLSLPVTLGQPASISCKSSQSLLDSDGKTYLNWLQQRPGQSPRRLIYLVGKRDSGVPDRFSGSGSGTDFTLKISRVEAEDVGVYYCWQGTHFPYTFGGGTKLEIK
notes: Humanized antibody with human Fc
One may read the Kd as the constant that tells how readily two partners part at equilibrium. By koff is commonly meant a measure of how fast the partners let go of each other. In general, kon refers to the rate constant with which the complex forms. In the case of B1, the Kd was 0.226 nM, the koff was 0.00102 s⁻¹ and the on-rate constant (kon) was determined as 4.51e+06 M⁻¹ s⁻¹.

B2: hu3D6VHv1bA11/L2-DIM19 (antibody, V domains shown)
VH: EVQLVQSGAEVVKPGATVKISCKASGFNIKDYYLHWVRQRPGQGLEWIGWIDPENGDTVYDPKFQGRATITADTSTDTAYLQLGSLTSEDTAVYFCSTLDFWGQGTLVTVSS
VL: DVVMTQSPLSLPVTLGQPASISCKSSQSLLDSDGKTYLNWLQQRPGQSPRRLIYEVSKGDSGVPDRFSGSGSGTDFTLKISRVEAEDVGVYYCWQGTHFPYTFGGGTKLEIK
notes: as for B1
As for B2, the Kd is 1.79 nM and the koff turned out to be 5.88 s⁻¹.

B3: hu3D6VHv1bA11/L2-DIM20 (antibody, V domains shown)
VH: EVQLVQSGAEVVKPGATVKISCKASGFNIKDYYLHWVRQRPGQGLEWIGWIDPENGDTVYDPKFQGRATITADTSTDTAYLQLGSLTSEDTAVYFCSTLDFWGQGTLVTVSS
VL: DVVMTQSPLSLPVTLGQPASISCKSSQSLLDSDGKTYLNWLQQRPGQSPRRLIYEVSKRDSGVPDRFSGSGSGTDFTLKISRVEAEDVGVYYCWQGTHFPYTFGGGTKLEIK
notes: as for B1
Regarding B3, the Kd turned out to be 36 nM, the koff came out at 0.00935 s⁻¹ and the on-rate constant (kon) came out at 260000 M⁻¹ s⁻¹.

B4: hu3D6VHv1bA11/L2-DIM21 (antibody, V domains shown)
VH: EVQLVQSGAEVVKPGATVKISCKASGFNIKDYYLHWVRQRPGQGLEWIGWIDPENGDTVYDPKFQGRATITADTSTDTAYLQLGSLTSEDTAVYFCSTLDFWGQGTLVTVSS
VL: DVVMTQSPLSLPVTLGQPASISCKSSQSLLDSDGKTYLNWLLQRPGQSPRRLIYLVSKDDSGVPDRFSGSGSGTDFTLKISRVEAEDVGVYYCWQGTHFPYTFGGGTKLEIK
notes: Humanized antibody with human Fc; also called hu3D6VHv1bA11 / hu3D6VLv2 L54D
Take B4: the Kd was found to be 0.696 nM, the koff turned out to be 0.00149 s⁻¹ and the kon was found to be 2.15e+06 M⁻¹ s⁻¹.

B5: hu3D6VHv1bA11/L2-DIM22 (antibody, V domains shown)
VH: EVQLVQSGAEVVKPGATVKISCKASGFNIKDYYLHWVRQRPGQGLEWIGWIDPENGDTVYDPKFQGRATITADTSTDTAYLQLGSLTSEDTAVYFCSTLDFWGQGTLVTVSS
VL: DVVMTQSPLSLPVTLGQPASISCKSSQSLLDSDGKTYLNWLLQRPGQSPRRLIYGVSKLDSGVPDRFSGSGSGTDFTLKISRVEAEDVGVYYCWQGTHFPYTFGGGTKLEIK
notes: Humanized antibody with human Fc; also called hu3D6VHv1bA11 / hu3D6VLv2 L50G
As to B5, the Kd is 0.708 nM, the dissociation rate constant (koff) amounted to 0.00251 s⁻¹ and the kon came out at 3.54e+06 M⁻¹ s⁻¹.

B6: hu3D6VHv1bA11/L2-DIM17 (antibody, V domains shown)
VH: EVQLVQSGAEVVKPGATVKISCKASGFNIKDYYLHWVRQRPGQGLEWIGWIDPENGDTVYDPKFQGRATITADTSTDTAYLQLGSLTSEDTAVYFCSTLDFWGQGTLVTVSS
VL: DVVMTQSPLSLPVTLGQPASISCKSSQSLLDSDGKTYLNWLQQRPGQSPRRLIYDVSKGDSGVPDRFSGSGSGTDFTLKISRVEAEDVGVYYCWQGTHFPYTFGGGTKLEIK
notes: as for B1
On to B6, for which the Kd came to 1.03 nM.

B7: hu3D6VHv1bA11/L2-DIM13 (antibody, V domains shown)
VH: EVQLVQSGAEVVKPGATVKISCKASGFNIKDYYLHWVRQRPGQGLEWIGWIDPENGDTVYDPKFQGRATITADTSTDTAYLQLGSLTSEDTAVYFCSTLDFWGQGTLVTVSS
VL: DVVMTQSPLSLPVTLGQPASISCKSSQSLLDSDGKTYLNWLQQRPGQSPRRLIYGVSKLDSGVPDRFSGSGSGTDFTLKISRVEAEDVGVYYCWQGTHFPYTFGGGTKLEIK
notes: as for B1
For the molecule B7, the equilibrium dissociation constant (Kd) was determined as 0.904 nM, the koff was found to be 0.00285 s⁻¹ and the kon was 3.15e+06 M⁻¹ s⁻¹.

B8: hu3D6VHv1bA11/L2-DIM6 (antibody, V domains shown)
VH: EVQLVQSGAEVVKPGATVKISCKASGFNIKDYYLHWVRQRPGQGLEWIGWIDPENGDTVYDPKFQGRATITADTSTDTAYLQLGSLTSEDTAVYFCSTLDFWGQGTLVTVSS
VL: DVVMTQSPLSLPVTLGQPASISCKSSQSLLDSDGKTYLNWLQQRPGQSPRRLIYLVGKDDSGVPDRFSGSGSGTDFTLKISRVEAEDVGVYYCWQGTHFPYTFGGGTKLEIK
notes: as for B1
In the case of B8, the Kd was 1.49 nM, the koff was 0.00461 s⁻¹ and the kon was determined as 3.08e+06 M⁻¹ s⁻¹.

B9: hu3D6VHv1bA11/L2-DIM14 (antibody, V domains shown)
VH: EVQLVQSGAEVVKPGATVKISCKASGFNIKDYYLHWVRQRPGQGLEWIGWIDPENGDTVYDPKFQGRATITADTSTDTAYLQLGSLTSEDTAVYFCSTLDFWGQGTLVTVSS
VL: DVVMTQSPLSLPVTLGQPASISCKSSQSLLDSDGKTYLNWLQQRPGQSPRRLIYDVSKLDSGVPDRFSGSGSGTDFTLKISRVEAEDVGVYYCWQGTHFPYTFGGGTKLEIK
notes: as for B1
With B9, the dissociation constant (Kd) is 1.53 nM.

B10: hu3D6VHv1bA11/L2-DIM3 (antibody, V domains shown)
VH: EVQLVQSGAEVVKPGATVKISCKASGFNIKDYYLHWVRQRPGQGLEWIGWIDPENGDTVYDPKFQGRATITADTSTDTAYLQLGSLTSEDTAVYFCSTLDFWGQGTLVTVSS
VL: DVVMTQSPLSLPVTLGQPASISCKSSQSLLDSDGKTYLNWLQQRPGQSPRRLIYLVGKGDSGVPDRFSGSGSGTDFTLKISRVEAEDVGVYYCWQGTHFPYTFGGGTKLEIK
notes: as for B1
Take B10: the Kd was determined as 0.199 nM, the koff was determined as 0.000781 s⁻¹ and the association rate constant (kon) was 3.93e+06 M⁻¹ s⁻¹.

B11: hu3D6VHv1bA11/L2-DIM18 (antibody, V domains shown)
VH: EVQLVQSGAEVVKPGATVKISCKASGFNIKDYYLHWVRQRPGQGLEWIGWIDPENGDTVYDPKFQGRATITADTSTDTAYLQLGSLTSEDTAVYFCSTLDFWGQGTLVTVSS
VL: DVVMTQSPLSLPVTLGQPASISCKSSQSLLDSDGKTYLNWLQQRPGQSPRRLIYDVSKRDSGVPDRFSGSGSGTDFTLKISRVEAEDVGVYYCWQGTHFPYTFGGGTKLEIK
notes: as for B1
For the molecule B11, the Kd was 2.51 nM, the dissociation rate constant (koff) amounted to 0.00378 s⁻¹ and the kon is 1.51e+06 M⁻¹ s⁻¹.

B12: h3D6VHvb8/L2-DIM7 (antibody, V domains shown)
VH: EVQLVQSGAEVVKPGATVKISCKASGFNIKDYYLHWVRQRPGQGLEWIGWIDPENGDTVYEPKFQGRATITADTSTDTAYLQLGSLTSEDTAVYFCSTLDFWGQGTLVTVSS
VL: DVVMTQSPLSLPVTLGQPASISCKSSQSLLDSDGKTYLNWLLQRPGQSPRRLIYLVSKGDSGVPDRFSGSGSGTDFTLKISRVEAEDVGVYYCWQGTHFPYTFGGGTKLEIK
notes: Humanized antibody with human Fc; also called hu3D6VHv1bA11 D60E / hu3D6VLv2 L54G
In the case of B12, the Kd is 0.275 nM, the koff was 0.00119 s⁻¹ and the kon is 4.31e+06 M⁻¹ s⁻¹.

B13: hu3D6VHv1bA11/L2-DIM7 (antibody, V domains shown)
VH: EVQLVQSGAEVVKPGATVKISCKASGFNIKDYYLHWVRQRPGQGLEWIGWIDPENGDTVYDPKFQGRATITADTSTDTAYLQLGSLTSEDTAVYFCSTLDFWGQGTLVTVSS
VL: DVVMTQSPLSLPVTLGQPASISCKSSQSLLDSDGKTYLNWLLQRPGQSPRRLIYLVSKGDSGVPDRFSGSGSGTDFTLKISRVEAEDVGVYYCWQGTHFPYTFGGGTKLEIK
notes: Humanized antibody with human Fc; also called hu3D6VHv1bA11 / hu3D6VLv2 L54G
Regarding B13, the Kd turned out to be 0.281 nM, the koff turned out to be 0.000971 s⁻¹ and the kon was 3.46e+06 M⁻¹ s⁻¹.

B14: hu3D6VHv1bA11/L2-DIM12 (antibody, V domains shown)
VH: EVQLVQSGAEVVKPGATVKISCKASGFNIKDYYLHWVRQRPGQGLEWIGWIDPENGDTVYDPKFQGRATITADTSTDTAYLQLGSLTSEDTAVYFCSTLDFWGQGTLVTVSS
VL: DVVMTQSPLSLPVTLGQPASISCKSSQSLLDSDGKTYLNWLQQRPGQSPRRLIYLVSKDDSGVPDRFSGSGSGTDFTLKISRVEAEDVGVYYCWQGTHFPYTFGGGTKLEIK
notes: as for B1
Regarding B14, the Kd is 0.485 nM, the off-rate constant (koff) was determined as 0.00133 s⁻¹ and the kon amounted to 2.74e+06 M⁻¹ s⁻¹.

B15: h3D6VHvb8/L2-DIM6 (antibody, V domains shown)
VH: EVQLVQSGAEVVKPGATVKISCKASGFNIKDYYLHWVRQRPGQGLEWIGWIDPENGDTVYEPKFQGRATITADTSTDTAYLQLGSLTSEDTAVYFCSTLDFWGQGTLVTVSS
VL: DVVMTQSPLSLPVTLGQPASISCKSSQSLLDSDGKTYLNWLQQRPGQSPRRLIYLVGKDDSGVPDRFSGSGSGTDFTLKISRVEAEDVGVYYCWQGTHFPYTFGGGTKLEIK
notes: as for B1
Consider B15, for which the Kd was 1.5 nM and the dissociation rate constant (koff) was 5.67 s⁻¹.

B16: hu3D6VHv1bA11/L2-DIM9 (antibody, V domains shown)
VH: EVQLVQSGAEVVKPGATVKISCKASGFNIKDYYLHWVRQRPGQGLEWIGWIDPENGDTVYDPKFQGRATITADTSTDTAYLQLGSLTSEDTAVYFCSTLDFWGQGTLVTVSS
VL: DVVMTQSPLSLPVTLGQPASISCKSSQSLLDSDGKTYLNWLLQRPGQSPRRLIYLVGKLDSGVPDRFSGSGSGTDFTLKISRVEAEDVGVYYCWQGTHFPYTFGGGTKLEIK
notes: Humanized antibody with human Fc; also called hu3D6VHv1bA11 / hu3D6VLv2 S52G
For B16, the dissociation constant Kd came to 0.16 nM, the off-rate constant (koff) was 0.00074 s⁻¹ and the on-rate (kon) was determined as 4.63e+06 M⁻¹ s⁻¹.

B17: hu3D6VHv1bA11/L2-DIM5 (antibody, V domains shown)
VH: EVQLVQSGAEVVKPGATVKISCKASGFNIKDYYLHWVRQRPGQGLEWIGWIDPENGDTVYDPKFQGRATITADTSTDTAYLQLGSLTSEDTAVYFCSTLDFWGQGTLVTVSS
VL: DVVMTQSPLSLPVTLGQPASISCKSSQSLLDSDGKTYLNWLQQRPGQSPRRLIYLVGKTDSGVPDRFSGSGSGTDFTLKISRVEAEDVGVYYCWQGTHFPYTFGGGTKLEIK
notes: as for B1
On to B17, for which the Kd worked out at 0.183 nM, the koff was determined as 0.000735 s⁻¹ and the kon worked out at 4.02e+06 M⁻¹ s⁻¹.

B18: h3D6VHvb8/L2-DIM8 (antibody, V domains shown)
VH: EVQLVQSGAEVVKPGATVKISCKASGFNIKDYYLHWVRQRPGQGLEWIGWIDPENGDTVYEPKFQGRATITADTSTDTAYLQLGSLTSEDTAVYFCSTLDFWGQGTLVTVSS
VL: DVVMTQSPLSLPVTLGQPASISCKSSQSLLDSDGKTYLNWLQQRPGQSPRRLIYLVSKLDSGVPDRFSGSGSGTDFTLKISRVEAEDVGVYYCWQGTHFPYTFGGGTKLEIK
notes: Humanized antibody with human Fc; also called hu3D6VHv1bA11 D60E / hu3D6VLv2 L37Q
Regarding B18, the Kd was 0.427 nM, the off-rate constant (koff) was 0.0014 s⁻¹ and the kon stood at 3.28e+06 M⁻¹ s⁻¹.

The record behind these values is US20200369755A1 (PROTHENA BIOSCIENCES, published 2020).
